The results in this text go back to patent publication US20110311550A1 (Scripps Research, published 2011).

The target of one test is H77 E1E2 mutant N415A (HCV isolate H77, UniProt P27958 192-383; P27958 384-746). In words: ELISA, alanine mutant E1E2.
The target in the next test is H77 E1E2 mutant G418A (HCV isolate H77, UniProt P27958 192-383; P27958 384-746). Nature of the test: ELISA, alanine mutant E1E2. (In general: ELISA stands for enzyme-linked immunosorbent assay.)
In the next test the target is H77 E1E2 mutant S424A (HCV isolate H77, UniProt P27958 192-383; P27958 384-746). Nature of the test: ELISA, alanine mutant E1E2.
The target of a further test is H77 E1E2 mutant R483A (HCV isolate H77, UniProt P27958 192-383; P27958 384-746). Nature of the test: ELISA, alanine mutant E1E2.
A further test deals with H77 E1E2 mutant W487A (HCV isolate H77, UniProt P27958 192-383; P27958 384-746). In words: ELISA, alanine mutant E1E2.
The next test addresses H77 E1E2 mutant P491A (HCV isolate H77, UniProt P27958 192-383; P27958 384-746). In words: ELISA, alanine mutant E1E2.
The next test deals with H77 E1E2 mutant P545A (HCV isolate H77, UniProt P27958 192-383; P27958 384-746). Nature of the test: ELISA, alanine mutant E1E2.
In the next test the target is H77 E1E2 mutant G547A (HCV isolate H77, UniProt P27958 192-383; P27958 384-746). In words: ELISA, alanine mutant E1E2.
The target of test [1] is vaccinia-expressed E1E2 complex, isolate HCV-1 (genotype 1a) (hepatitis C virus, isolate HCV-1, UniProt P26664 192-383; P26664 384-746). In words: competition ELISA on HCV-1 E1E2; competitor m27 (3/11).
Test [2] addresses E1E2 complex (H77) with E2 mutation T621A (HCV genotype 1a, isolate H77, UniProt P27958 192-383; P27958 384-746). Nature of the test: ELISA, lectin-captured E1E2 lysate, Ab 1 ug/ml.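 Note: E1E2 captured on Galanthus nivalis lectin-coated plates, bound antibody read out via HRP-linked secondary antibody with TMB colorimetric substrate.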
Test [3] deals with E1E2 complex (H77) with E2 mutation R630A (HCV genotype 1a, isolate H77, UniProt P27958 192-383; P27958 384-746). Nature of the test: ELISA, lectin-captured E1E2 lysate, Ab 1 ug/ml.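 Note: E1E2 captured on Galanthus nivalis lectin-coated plates, bound antibody read out via HRP-linked secondary antibody with TMB colorimetric substrate.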
Test [4] concerns the target E1E2 complex (H77) with E2 mutation G634A (HCV genotype 1a, isolate H77, UniProt P27958 192-383; P27958 384-746). In words: ELISA, lectin-captured E1E2 lysate, Ab 1 ug/ml.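 Note: E1E2 captured on Galanthus nivalis lectin-coated plates, bound antibody read out via HRP-linked secondary antibody with TMB colorimetric substrate.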
The target of test [5] is E1E2 complex (H77) with E2 mutation G635A (HCV genotype 1a, isolate H77, UniProt P27958 192-383; P27958 384-746). Nature of the test: ELISA, lectin-captured E1E2 lysate, Ab 1 ug/ml.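 Note: E1E2 captured on Galanthus nivalis lectin-coated plates, bound antibody read out via HRP-linked secondary antibody with TMB colorimetric substrate.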
Test [6] has as its target E1E2 complex (H77) with E2 mutation E637A (HCV genotype 1a, isolate H77, UniProt P27958 192-383; P27958 384-746). Nature of the test: ELISA, lectin-captured E1E2 lysate, Ab 1 ug/ml.
Test [7] addresses E1E2 complex (H77) with E2 mutation R639A (HCV genotype 1a, isolate H77, UniProt P27958 192-383; P27958 384-746). In words: ELISA, lectin-captured E1E2 lysate, Ab 1 ug/ml.
Test [8] addresses E1E2 complex (H77) with E2 mutation A643G (HCV genotype 1a, isolate H77, UniProt P27958 192-383; P27958 384-746). Nature of the test: ELISA, lectin-captured E1E2 lysate, Ab 1 ug/ml.
In test [9] the target is E1E2 complex (H77) with E2 mutation T425A (HCV genotype 1a, isolate H77, UniProt P27958 192-383; P27958 384-746). Nature of the test: ELISA, lectin-captured E1E2 lysate, Ab 1 ug/ml.
Test [10] has as its target E1E2 complex (H77) with E2 mutation L427A (HCV genotype 1a, isolate H77, UniProt P27958 192-383; P27958 384-746). Nature of the test: ELISA, lectin-captured E1E2 lysate, Ab 1 ug/ml.
Test [11] deals with E1E2 complex (H77) with E2 mutation N428A (HCV genotype 1a, isolate H77, UniProt P27958 192-383; P27958 384-746). Nature of the test: ELISA, lectin-captured E1E2 lysate, Ab 1 ug/ml.
The target of test [12] is E1E2 complex (H77) with E2 mutation A439G (HCV genotype 1a, isolate H77, UniProt P27958 192-383; P27958 384-746). Nature of the test: ELISA, lectin-captured E1E2 lysate, Ab 1 ug/ml.
Test [13] deals with E1E2 complex (H77) with E2 mutation L441A (HCV genotype 1a, isolate H77, UniProt P27958 192-383; P27958 384-746). In words: ELISA, lectin-captured E1E2 lysate, Ab 1 ug/ml.
Test [14] concerns the target E1E2 complex (H77) with E2 mutation F442A (HCV genotype 1a, isolate H77, UniProt P27958 192-383; P27958 384-746). In words: ELISA, lectin-captured E1E2 lysate, Ab 1 ug/ml.
Test [15] addresses E1E2 complex (H77) with E2 mutation F447A (HCV genotype 1a, isolate H77, UniProt P27958 192-383; P27958 384-746). Nature of the test: ELISA, lectin-captured E1E2 lysate, Ab 1 ug/ml.
Test [16] has as its target E1E2 complex (H77) with E2 mutation R614A (HCV genotype 1a, isolate H77, UniProt P27958 192-383; P27958 384-746). In words: ELISA, lectin-captured E1E2 lysate, Ab 1 ug/ml.

B1: MAb AR1B (antibody, V domains shown)
VH: LESGGGLVQPGGSLRLSCEASGYYFSSFAMSWVRQTPGKGLEWVSSIAGGTLGRTSYRDSVKGRFTISRDNSKNTVFLHMNNLRPEDTAVYYCAKDPLLFAGGPNWFDHWGQGTLVTVSS
VL: not shown
notes: also called IgG1 of Fab D1
With B1, the “binding vs wild-type E1E2” value amounted to 131% in the test with H77 E1E2 mutant N415A; 143% with H77 E1E2 mutant G418A; 103% with H77 E1E2 mutant S424A; 32% with H77 E1E2 mutant R483A; 70% with H77 E1E2 mutant W487A; 118% in the test with H77 E1E2 mutant P491A. Besides, the “binding vs wild-type E1E2” value worked out at 20% in the test with H77 E1E2 mutant P545A and 0% with H77 E1E2 mutant G547A. For the same molecule, in [1], the “% residual binding” value was 61%.

B2: MAb AR1A (antibody, V domains shown)
VH: LEQSGAEVKKPGSSVKVSCRASGSPYSSYTITWVRQAPGQGLEWMGGIILMTGKANYAQKFQGRVTITADRATATAYMEMSSLTSDDTAIYYCARDPYVYAGDDVRSLSRWGQGTPVIVSS
VL: not shown
notes: also called IgG1 of Fab B2
With B2, the “binding vs wild-type E1E2” value in the test with H77 E1E2 mutant N415A was determined as 106%; with H77 E1E2 mutant G418A, 51%; with H77 E1E2 mutant S424A, 103%; in the test with H77 E1E2 mutant R483A, 64%; in the test with H77 E1E2 mutant W487A, 89%; with H77 E1E2 mutant P491A, 119%. Moreover, the “binding vs wild-type E1E2” value with H77 E1E2 mutant P545A is 74%; in the test with H77 E1E2 mutant G547A it was 34%. Further, the “% residual binding” value in test [1] amounted to 66%.

B3: MAb AR3D (antibody, V domains shown)
VH: LEQSGAEVKKPGSSVKVSCKASGDTFRSYVITWARQAPGQGLEWMGAIIPFFGTTNLAQKFQGRVTITADESTKTVYMDLSSLRSDDTAVYYCAKAGDLSVGGVLAGGVPHLRHFDPWGQGTLVTVSS
VL: ELTQSPGTLSLSPGERATLSCRAGQTVASNSLAWYQHKPGQAPRLLIYGASIRASGIPDRFSGSGSGTDFTLTISRLEPEDFAVYYCQQYGLSSTFGQGTRLEIKR
notes: also called IgG1 of Fab L4
For B3, the “binding vs wild-type E1E2” value with H77 E1E2 mutant N415A was 131%; with H77 E1E2 mutant G418A it was 60%; in the test with H77 E1E2 mutant S424A it was 6%; in the test with H77 E1E2 mutant R483A, 151%; with H77 E1E2 mutant W487A it was 119%; with H77 E1E2 mutant P491A, 204%. In addition, the “binding vs wild-type E1E2” value turned out to be 307% with H77 E1E2 mutant P545A and 202% with H77 E1E2 mutant G547A. For the same molecule, in [1], the “% residual binding” value is 37%.

B4: MAb AR2A (antibody, V domains shown)
VH: LEQSGAEMKKPGASLKVSCKTSGYTFDDYGVTWVRQAPGQGLEWMGWISAYSGNTFYARKFQGRVTMTTDPSTRTAYMELRSLRSDDTAVYFCARDRGLAINGVVFPYFGLDVWGQGTTVTVSS
VL: ELTQSPVSLPVTPGEPASISCRSSQSLLHSNGNHYLDWYLQKPGQSPQLLMYLGSNRASGVPDRFSGSGSGTDFTLKISRVEAEDVGVYYCMQGLQTPWTFGQGTKVEIKR
notes: also called IgG1 of Fab G
For the molecule B4, the “binding vs wild-type E1E2” value with H77 E1E2 mutant N415A was 122%; with H77 E1E2 mutant G418A, 83%; in the test with H77 E1E2 mutant S424A, 91%; in the test with H77 E1E2 mutant R483A it was 68%; with H77 E1E2 mutant W487A, 93%; with H77 E1E2 mutant P491A, 123%. Further, the figures for the “binding vs wild-type E1E2” value with H77 E1E2 mutant P545A and in the test with H77 E1E2 mutant G547A were 106% and 83%, respectively. Besides, the “% residual binding” value in [1] was found to be 94%.

B5: MAb AR3C (antibody, V domains shown)
VH: LEQSGAEVKKPGSSVKVSCETSGGTLDNYALNWVRQAPGQGLEWIGGVVPLFGTTRNAQKFQGRVTISDDKSTGTGHMELRSLRSEDTAVYYCVRSVTPRYCGGGFCYGEFDYWGQGTLVTVSS
VL: ELTQSPATLSVSPGERATLSCRASQSVSSNLAWYQQKPGQAPRLLIYGASTRATGIPARFSGSGSGTEFTLTVSRLEPEDSAVYFCQQYYRSPLTFGGGTKVEIKR
notes: also called IgG1 of Fab H3
B5: the “% residual binding” value in [1] came to 44%.

B6: N4 IgG (antibody, V domains shown)
VH: VQLLEQSGPEVKKPGDSLRISCKMSGDSLVTTWIGWVRQKPGQGLEWMGIINPGDSSTNIYPGDSATRYGPSFQGQVTISIDKSTSTAYLQWNNVKASDTGIYYCARHVPVPISGTFLWREREMHDFGYFDDWGQGTLVIVSS
VL: ELTLTQSPGTLSLSPGERATLSCRASQSVSNNYLAWYQQKPGQAPRLLIYGASSRATGIPDRFSGSGSGTGFTLIISRLEPEDFAVYYCQQYGSSSITFGQGTRLEIKR
notes: also called IgG N4
As for B6, the “Binding relative to wt (%)” value in [2] amounted to 34%; in [3], 115%; in [4], 117%; in [5] it was 80%; in test [6], 67%; in test [7], 114%. Also, the “Binding relative to wt (%)” value worked out at 34% in test [8]; 100% in test [9]; 125% in [10]; 98% in test [11]; 12% in test [12]; 18% in [13]. Besides, the results for the “Binding relative to wt (%)” value in [14], in [15] and in [16] were 22%, 28% and 16%, respectively.
